Experimental data: article PMC10783490, “Biochemical and cellular insights into the Baz2B protein, a non-catalytic subunit of the chromatin remodeling complex” (Nucleic Acids Research, 2023)

What was measured:
Assay in all cases: MST; 100 nM fluorescently labelled (RED-NHS) BRD^Baz2B, peptide (H3 or H3K14ac) titrated; MST buffer 150 mM Tris-HCl, 50 mM NaCl, 10 mM MgCl2, pH 7.6, 0.0025% Pluronic, 200 ng/ul BSA; 25 C, 20% MST power; at least triplicate
Conditions in all cases: both partners purified
BRD^Baz2B D2143N = target: T1, BRD^Baz2B D2143N (human, UniProt Q9UIF8 2054-2168, D2143N, fluorescent label (Monolith NT Protein Labelling Kit RED-NHS))
T1 construct: bromodomain (BRD) of human Baz2B with a cancer-associated point mutation, made on pNIC28-Bsa4-BAZ2B-BRD; Same limits as m1; mutation found in breast invasive carcinoma; source: E. coli BL21(DE3)-R3-pRARE2, purified (Ni-NTA, Sephadex 75)
T1 sequence: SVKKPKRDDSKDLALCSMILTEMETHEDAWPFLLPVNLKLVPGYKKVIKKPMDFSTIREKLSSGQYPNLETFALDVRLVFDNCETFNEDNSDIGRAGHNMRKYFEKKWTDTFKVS

[1] = target: T2, His6-BRD^Baz2B (bromodomain of human Baz2B, wild-type) (human, UniProt Q9UIF8 2054-2168, fluorescent label (Monolith NT Protein Labelling Kit RED-NHS))
T2 construct: bromodomain (BRD) of human Baz2B, from plasmid pNIC28-Bsa4-BAZ2B-BRD; also called BAZ2B-BRD; source: E. coli BL21(DE3)-R3-pRARE2, purified (Ni-NTA, Sephadex 75)
T2 sequence: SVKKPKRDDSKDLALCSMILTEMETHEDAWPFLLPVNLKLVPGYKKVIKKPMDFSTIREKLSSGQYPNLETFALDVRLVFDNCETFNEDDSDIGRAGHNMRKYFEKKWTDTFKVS

BRD^Baz2B T2138I = target: T3, BRD^Baz2B T2138I (human, UniProt Q9UIF8 2054-2168, T2138I, fluorescent label (Monolith NT Protein Labelling Kit RED-NHS))
T3 construct: bromodomain (BRD) of human Baz2B with a cancer-associated point mutation, made on pNIC28-Bsa4-BAZ2B-BRD; Same limits as m1; mutation found in multiple myeloma; source: E. coli BL21(DE3)-R3-pRARE2, purified (Ni-NTA, Sephadex 75)
T3 sequence: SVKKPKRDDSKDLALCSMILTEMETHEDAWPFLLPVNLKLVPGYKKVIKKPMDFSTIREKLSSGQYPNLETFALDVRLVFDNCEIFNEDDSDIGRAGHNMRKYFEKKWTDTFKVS

BRD^Baz2B F2139C = target: T4, BRD^Baz2B F2139C (human, UniProt Q9UIF8 2054-2168, F2139C, fluorescent label (Monolith NT Protein Labelling Kit RED-NHS))
T4 construct: bromodomain (BRD) of human Baz2B with a cancer-associated point mutation, made on pNIC28-Bsa4-BAZ2B-BRD; Same limits as m1; mutation found in endometrial cancer; source: E. coli BL21(DE3)-R3-pRARE2, purified (Ni-NTA, Sephadex 75)
T4 sequence: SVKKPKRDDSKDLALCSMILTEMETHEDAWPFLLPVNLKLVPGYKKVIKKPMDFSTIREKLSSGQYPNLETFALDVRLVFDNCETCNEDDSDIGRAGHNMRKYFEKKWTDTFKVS

BRD^Baz2B L2127V = target: T5, BRD^Baz2B L2127V (human, UniProt Q9UIF8 2054-2168, L2127V, fluorescent label (Monolith NT Protein Labelling Kit RED-NHS))
T5 construct: bromodomain (BRD) of human Baz2B with a cancer-associated point mutation, made on pNIC28-Bsa4-BAZ2B-BRD; Same limits as m1; mutation found in breast cancer; source: E. coli BL21(DE3)-R3-pRARE2, purified (Ni-NTA, Sephadex 75)
T5 sequence: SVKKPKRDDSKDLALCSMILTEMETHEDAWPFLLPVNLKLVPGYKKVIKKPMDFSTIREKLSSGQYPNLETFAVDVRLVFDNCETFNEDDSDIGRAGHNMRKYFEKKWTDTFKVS

BRD^Baz2B K2098N = target: T6, BRD^Baz2B K2098N (human, UniProt Q9UIF8 2054-2168, K2098N, fluorescent label (Monolith NT Protein Labelling Kit RED-NHS))
T6 construct: bromodomain (BRD) of human Baz2B with a cancer-associated point mutation, made on pNIC28-Bsa4-BAZ2B-BRD; Same limits as m1; mutation found in multiple myeloma; source: E. coli BL21(DE3)-R3-pRARE2, purified (Ni-NTA, Sephadex 75)
T6 sequence: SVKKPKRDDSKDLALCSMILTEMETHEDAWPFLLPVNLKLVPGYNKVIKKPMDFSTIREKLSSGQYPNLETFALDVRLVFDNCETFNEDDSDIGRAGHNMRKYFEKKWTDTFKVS

BRD^Baz2B L2073V = target: T7, BRD^Baz2B L2073V (human, UniProt Q9UIF8 2054-2168, L2073V, fluorescent label (Monolith NT Protein Labelling Kit RED-NHS))
T7 construct: bromodomain (BRD) of human Baz2B with a cancer-associated point mutation, made on pNIC28-Bsa4-BAZ2B-BRD; Same limits as m1; mutation found in pancreatic cancer (COSMIC/ICGC); source: E. coli BL21(DE3)-R3-pRARE2, purified (Ni-NTA, Sephadex 75)
T7 sequence: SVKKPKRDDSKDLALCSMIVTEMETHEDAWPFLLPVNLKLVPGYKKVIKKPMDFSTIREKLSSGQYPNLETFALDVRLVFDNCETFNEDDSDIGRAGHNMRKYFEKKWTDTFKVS

[2] = target: T2, His6-BRD^Baz2B (bromodomain of human …); remark: listed apart in the source

Kd (BRD^Baz2B D2143N): 42 µM
Kd [1]: > 288 µM
Kd (BRD^Baz2B T2138I): 211 µM
Kd (BRD^Baz2B F2139C): > 798 µM
Kd (BRD^Baz2B L2127V): 1.7 µM
Kd (BRD^Baz2B K2098N): 8 µM
Kd (BRD^Baz2B L2073V): 7 µM
Kd [2]: 288 µM
B1: H3 peptide (Ac-TARKSTGGKAPRKQL-NH2) (peptide)
peptide: Ac-TARKSTGGKAPRKQL-NH2
notes: N-terminal tail of histone H3, residues 6-20; also called unmodified H3 peptide; unmodified H3K14 tail peptide; source: synthetic peptide, bought: alta Bioscience
